T1: SSBP1 wild-type (Homo sapiens, UniProt Q04837 17-148)
T1 sequence: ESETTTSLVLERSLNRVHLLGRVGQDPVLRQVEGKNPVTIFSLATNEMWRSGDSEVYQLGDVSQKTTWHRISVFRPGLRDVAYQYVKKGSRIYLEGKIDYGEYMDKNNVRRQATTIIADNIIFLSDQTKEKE


What was measured:
[1] = target: the molecule itself; assay: cross-linking; glutaraldehyde cross-linking of recombinant SSBP1 proteins, SDS-PAGE with Coomassie staining and SSBP1 immunoblot, band intensities quantified with ImageJ (n = 3)
SSBP1 wild-type = target: T1, SSBP1 wild-type; assay: EMSA; probe 0.25 uM (far above Kd); legend gives protein 0-2 nM, main text figure 1 uM; units doubtful; 50 mM Tris pH 7.5, 150 mM NaCl, 10% glycerol, 30 min at room temperature; 2% agarose gel in 1x TBE; conditions: protein: recombinant; tags: IMAC tag (probably His); chain copies: 4

Binder	binding result [1]	Kd (SSBP1 wild-type)
single-stranded DNA-binding protein 1 (SSBP1), wild-type recombinant protein (natural protein, human, UniProt Q04837 17-148, looked up, A human SSBP1 cDNA clone (Origene RC215106) is named only for expression in mammalian cells; also called wild-type SSBP1; source: E. coli BL21 (DE3), purified (HiTrap IMAC, dialysis, Superdex 200 SEC)) ESETTTSLVLERSLNRVHLLGRVGQDPVLRQVEGKNPVTIFSLATNEMWRSGDSEVYQLGDVSQKTTWHRISVFRPGLRDVAYQYVKKGSRIYLEGKIDYGEYMDKNNVRRQATTIIADNIIFLSDQTKEKE	binds	
GGACTATTTATTCAATATATTTAAGAACTAATTCCAGCTGAGCGCCGG (ssDNA) [EMSA ssDNA probe]		11.2 ± 0.89 nM
